Assay results published in patent US20230051701A1 (Bristol-Myers Squibb, published 2023).
Several values for one entry are separate records, joined by “and”; a condition that tells them apart may be missing. Identical values can stand only once.

T1: human CD73 on cells (Calu6, NCI-H292, SK-MEL-24, human tumor cell lines, human B and T cells) (human, UniProt P21589 27-549)
T1 sequence: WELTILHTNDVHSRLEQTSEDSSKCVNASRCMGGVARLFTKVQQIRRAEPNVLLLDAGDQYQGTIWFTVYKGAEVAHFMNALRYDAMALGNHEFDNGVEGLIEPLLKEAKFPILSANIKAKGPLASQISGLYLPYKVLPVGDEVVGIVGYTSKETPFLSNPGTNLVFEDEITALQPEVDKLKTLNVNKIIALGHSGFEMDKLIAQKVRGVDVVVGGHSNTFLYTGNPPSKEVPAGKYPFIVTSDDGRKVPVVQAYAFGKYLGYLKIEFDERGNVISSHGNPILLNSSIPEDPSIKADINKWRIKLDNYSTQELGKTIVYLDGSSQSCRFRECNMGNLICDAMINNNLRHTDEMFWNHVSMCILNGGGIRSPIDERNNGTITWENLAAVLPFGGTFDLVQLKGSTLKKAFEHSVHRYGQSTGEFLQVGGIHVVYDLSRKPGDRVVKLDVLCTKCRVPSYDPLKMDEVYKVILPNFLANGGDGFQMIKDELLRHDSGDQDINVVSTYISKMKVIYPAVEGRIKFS

T2: full length extracellular domain of human CD73 linked to a His tag (human, UniProt P21589 27-547, glycosylated)
T2 construct: 27-553 is 27-547 plus that tag; also called hCD73-his; CD73-his
T2 sequence: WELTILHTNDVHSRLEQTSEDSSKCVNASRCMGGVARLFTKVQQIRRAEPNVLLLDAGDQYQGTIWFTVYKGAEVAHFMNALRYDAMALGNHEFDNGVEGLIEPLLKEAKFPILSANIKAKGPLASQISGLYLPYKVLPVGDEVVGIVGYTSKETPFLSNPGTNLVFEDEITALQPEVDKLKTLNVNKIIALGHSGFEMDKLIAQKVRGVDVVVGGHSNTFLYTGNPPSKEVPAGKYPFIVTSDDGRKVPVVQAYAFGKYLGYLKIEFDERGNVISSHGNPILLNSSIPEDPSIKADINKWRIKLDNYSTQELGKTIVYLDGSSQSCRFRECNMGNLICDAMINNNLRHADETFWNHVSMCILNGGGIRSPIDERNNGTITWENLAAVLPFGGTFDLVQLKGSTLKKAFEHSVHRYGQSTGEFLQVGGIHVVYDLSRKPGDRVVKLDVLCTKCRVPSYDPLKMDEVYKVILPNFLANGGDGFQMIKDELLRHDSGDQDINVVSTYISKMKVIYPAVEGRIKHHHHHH

T3: N-terminal domain of hCD73 (residues 26-336 of human CD73), His-tagged (human, UniProt P21589 26-336)
T3 construct: also called N-hCD73; N-hCD73-his
T3 sequence: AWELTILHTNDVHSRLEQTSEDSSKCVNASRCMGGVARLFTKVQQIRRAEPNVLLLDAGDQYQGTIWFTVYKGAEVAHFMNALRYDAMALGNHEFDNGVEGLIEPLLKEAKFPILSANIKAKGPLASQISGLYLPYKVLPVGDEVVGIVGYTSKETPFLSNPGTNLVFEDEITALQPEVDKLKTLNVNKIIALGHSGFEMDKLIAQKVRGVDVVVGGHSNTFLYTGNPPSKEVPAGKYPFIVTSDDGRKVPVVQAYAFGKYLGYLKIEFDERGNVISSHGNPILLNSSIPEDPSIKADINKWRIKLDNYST


Legend:
[1] = target: T1, human CD73 on cells (Calu6, NCI-H292, …); experiment: cell-based or functional assay
[2] = target: T1, human CD73 on cells (Calu6, NCI-H292, …); experiment: flow cytometry, FITC-mAb, B cells of donor D316
Protocol: (§1) Binding of CD73.4 antibody to human B and T cells was also determined. Human blood from two donors, D316 and D329, was obtained from Immunsciences, BMS. Peripheral blood mononuclear cells (PBMC) were isolated with Lympholyte-H cell separation gradient media. […] Cells from both donors were pooled for the unstained and FMO (Fluorescence minus one) control samples.

[3] = target: T2, full length extracellular domain of …; experiment: SEC-MALS, equimolar mix 5.5 uM mAb + 5.5 uM hCD73-his, peak area
Protocol: The oligomeric state of CD73/antibody complexes were examined by size-exclusion chromatography coupled to an in-line multi-angle light scattering detector (SEC-MALS). Isocratic separations were performed on a Shodex PROTEIN KW-803 column connected to an Prominence Shimadzu UFLC in buffer containing 200 mM K2HPO4, 150 mM NaCl, pH 6.8, containing 0.02% Na azide (0.1 μm filtered) running at 0.5 mL/min. Samples were injected onto the column using a SIL-20AC Prominence Shimadzu autosampler, and data were obtained from three online detectors connected in series: a Prominence SPD-20AD diode array UV/vis spectrophotometer followed by a Wyatt miniDAWN™ TREOS Multi-Angle Light Scattering Detector then a Wyatt Optilab T-rEX Refractive Index Detector. Data were collected and analyzed using Astra (Wyatt) and Labsolutions (Shimadzu) software.
CD73.4 antibodies having the heavy chain constant regions set forth in Table 26 were also tested for formation of high molecular weight complexes by SEC-MALS and DLS experiments, as described in Example 11.

[4] = target: T1, human CD73 on cells (Calu6, NCI-H292, …); experiment: flow cytometry, FITC-mAb, B cells of donor D329
Protocol: as §1

[5] = target: T3, N-terminal domain of hCD73 (residues …); experiment: SPR, comparison of all IgG2 molecules
Protocol: For these experiments, protein A (Pierce) was immobilized to a density of 3000 — 4000 RU on flow cells 1-4 of a CM5 sensor chip (GE Healthcare) using standard ethyl(dimethylaminopropyl) carbodiimide (EDC)/N-hydroxysuccinimide (NHS) chemistry, with ethanolamine blocking, in a running buffer of 0.01 M HEPES pH 7.4, 0.15 M NaCl, 3 mM EDTA, 0.005% v/v tween 20. […] The running buffer for the kinetic experiments was 10 mM sodium phosphate, 130 mM sodium chloride, 0.05% tween 20, pH 7.1. The surfaces were regenerated after each cycle using two 30 s pulses of 10 mM glycine pH 1.5 at a flow rate of 30 μl/min. Sensogram data was double-referenced and then fitted to a 1:1 Langmuir model using Biacore T100 evaluation software v2.0.4, to determine the association rate constant (ka), the dissociation rate constant (kd), and the equilibrium dissociation constant (KD).

Binder | CD73 Inhibition EC50(nM), cAMP assay, Calu6 [1] | IC50 [2] [nM] | UV % Peak1 <12.9 min (complexes larger than 4:4 hCD73-his:mAb) [3] [%] | IC50 [4] [nM] | fold lower affinity than 11F11 or CD73.4 [5] [fold] | CD73 Inhibition S:B, cAMP assay, Calu6 [1]
CD73.4-IgG2-C219S (antibody, also called CD73.4-IgG2CS; CD73.4-IgG2.3) heavy: QVQLVESGGGVVQPGRSLRLSCAASGFTFSNYGMHWVRQAPGKGLEWVAVILYDGSNKYYPDSVKGRFTISRDNSKNTLYLQMNSLRAEDTAVYYCARGGSSWYPDSFDIWGQGTMVTVSSASTKGPSVFPLAPCSRSTSESTAALGCLVKDYFPEPVTVSWNSGALTSGVHTFPAVLQSSGLYSLSSVVTVPSSNFGTQTYTCNVDHKPSNTKVDKTVERKSCVECPPCPAPPVAGPSVFLFPPKPKDTLMISRTPEVTCVVVDVSHEDPEVQFNWYVDGVEVHNAKTKPREEQFNSTFRVVSVLTVVHQDWLNGKEYKCKVSNKGLPAPIEKTISKTKGQPREPQVYTLPPSREEMTKNQVSLTCLVKGFYPSDIAVEWESNGQPENNYKTTPPMLDSDGSFFLYSKLTVDKSRWQQGNVFSCSVMHEALHNHYTQKSLSLSPG light: not shown | 1.56 nM and 1.78 nM | 0.159 | 37 | 0.0777 | – | –
CD73.10-IgG2-C219S (antibody, also called CD73.10-IgG2CS; CD73.10-IgG2S) heavy: QVQLVESGGGVVQPGRSLRLSCAASGFTFSNYGMHWVRQAPGKGLEWVAVIWYDESNKYYPDSVKGRFTISRDNSKNTLYLQMNSLRAEDTAVYYCARGGSSWYPDSFDIWGQGTMVTVSSASTKGPSVFPLAPCSRSTSESTAALGCLVKDYFPEPVTVSWNSGALTSGVHTFPAVLQSSGLYSLSSVVTVPSSNFGTQTYTCNVDHKPSNTKVDKTVERKSCVECPPCPAPPVAGPSVFLFPPKPKDTLMISRTPEVTCVVVDVSHEDPEVQFNWYVDGVEVHNAKTKPREEQFNSTFRVVSVLTVVHQDWLNGKEYKCKVSNKGLPAPIEKTISKTKGQPREPQVYTLPPSREEMTKNQVSLTCLVKGFYPSDIAVEWESNGQPENNYKTTPPMLDSDGSFFLYSKLTVDKSRWQQGNVFSCSVMHEALHNHYTQKSLSLSPG light: not shown | – | – | – | – | ~10 | –
CD73.4-IgG2-C219S-IgG1.1f (antibody, 94% of the N-terminal glutamine was pyro-Q; 97% of the heavy chains lacked the C-terminal lysine, also called CD73.4-IgG2CS-IgG1.1f) heavy: QVQLVESGGGVVQPGRSLRLSCAASGFTFSNYGMHWVRQAPGKGLEWVAVILYDGSNKYYPDSVKGRFTISRDNSKNTLYLQMNSLRAEDTAVYYCARGGSSWYPDSFDIWGQGTMVTVSSASTKGPSVFPLAPCSRSTSESTAALGCLVKDYFPEPVTVSWNSGALTSGVHTFPAVLQSSGLYSLSSVVTVPSSNFGTQTYTCNVDHKPSNTKVDKTVERKSCVECPPCPAPPVAGPSVFLFPPKPKDTLMISRTPEVTCVVVDVSHEDPEVKFNWYVDGVEVHNAKTKPREEQYNSTYRVVSVLTVLHQDWLNGKEYKCKVSNKALPSSIEKTISKAKGQPREPQVYTLPPSREEMTKNQVSLTCLVKGFYPSDIAVEWESNGQPENNYKTTPPVLDSDGSFFLYSKLTVDKSRWQQGNVFSCSVMHEALHNHYTQKSLSLSPG light: not shown | 1.28 nM | 0.165 | – | 0.145 | – | 12
